Measured values reported in the supplement of paper PMC11208486.

Experiment: specific initial activity, cyclohex-2-enone reduction (U mg-1); higher = more active
Method: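 Specific initial activity of purified ene reductases with 10 mM cyclohex-2-enone and 0.2 mM NAD(P)H in 50 mM sodium phosphate pH 7.4 with 0-45% (v/v) ethanol or methanol, at set reaction temperatures of 25-45 °C. NAD(P)H depletion was followed at 340 nm for 480 s, in triplicate.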

MSFVKDFKPQALGDTNLFKPIKIGNNELLHRAVIPPLTRMRALHPGNIPNRDWAVEYYTQRAQRPGTMIITEGAFISPQAGGYDNAPGVWSEEQMVEWTKIFNAIHEKKSFVWVQLWVLGWAAFPDNLARDGLRYDSASDNVFMDAEQEAKAKKANNPQHSLTKDEIKQYIKEYVQAAKNSIAAGADGVEIHSANGYLLNQFLDPHSNTRTDEYGGSIENRARFTLEVVDALVEAIGHEKVGLRLSPYGVFNSMSGGAETGIVAQYAYVAGELEKRAKAGKRLAFVHLVEPRVTNPFLTEGEGEYEGGSNDFVYSIWKGPVIRAGNFALHPEVVREEVKDKRTLIGYGRFFISNPDLVDRLEKGLPLNKYDRDTFYQMSAHGYIDYPTYEEALKLGWDKK
specific initial activity
Details | co-solvent: ethanol | co-solvent: methanol
co-solvent concentration (% v/v): 0, reaction temperature 25 °C | 0.2 | 0.24
co-solvent concentration (% v/v): 0, reaction temperature 30 °C | 0.23 | 0.21
co-solvent concentration (% v/v): 0, reaction temperature 35 °C | 0.36 | 0.37
co-solvent concentration (% v/v): 0, reaction temperature 40 °C | 0.33 | 0.23
co-solvent concentration (% v/v): 0, reaction temperature 45 °C | 0.1 | 0.07
co-solvent concentration (% v/v): 5, reaction temperature 25 °C | 0.28 | 0.21
co-solvent concentration (% v/v): 5, reaction temperature 30 °C | 0.32 | 0.29
co-solvent concentration (% v/v): 5, reaction temperature 35 °C | 0.47 | 0.46
co-solvent concentration (% v/v): 5, reaction temperature 40 °C | 0.34 | 0.25
co-solvent concentration (% v/v): 5, reaction temperature 45 °C | 0.17 | 0.12
co-solvent concentration (% v/v): 10, reaction temperature 25 °C | 0.27 | 0.3
co-solvent concentration (% v/v): 10, reaction temperature 30 °C | 0.37 | 0.36
co-solvent concentration (% v/v): 10, reaction temperature 35 °C | 0.52 | 0.52
co-solvent concentration (% v/v): 10, reaction temperature 40 °C | 0.21 | 0.17
co-solvent concentration (% v/v): 10, reaction temperature 45 °C | 0.12 | 0.08
co-solvent concentration (% v/v): 15, reaction temperature 25 °C | 0.32 | 0.33
co-solvent concentration (% v/v): 15, reaction temperature 30 °C | 0.36 | 0.4
co-solvent concentration (% v/v): 15, reaction temperature 35 °C | 0.52 | –
co-solvent concentration (% v/v): 15, reaction temperature 40 °C | 0.09 | –
co-solvent concentration (% v/v): 15, reaction temperature 45 °C | 0.05 | –
co-solvent concentration (% v/v): 20, reaction temperature 25 °C | 0.36 | –
co-solvent concentration (% v/v): 20, reaction temperature 30 °C | 0.35 | –
co-solvent concentration (% v/v): 20, reaction temperature 35 °C | 0.32 | –
co-solvent concentration (% v/v): 20, reaction temperature 40 °C | 0.02 | –
co-solvent concentration (% v/v): 20, reaction temperature 45 °C | 0.02 | –
co-solvent concentration (% v/v): 25, reaction temperature 25 °C | 0.27 | –
co-solvent concentration (% v/v): 25, reaction temperature 30 °C | 0.21 | –
co-solvent concentration (% v/v): 25, reaction temperature 35 °C | 0.03 | –
co-solvent concentration (% v/v): 25, reaction temperature 40 °C | 0.01 | –
co-solvent concentration (% v/v): 25, reaction temperature 45 °C | 0.01 | –
co-solvent concentration (% v/v): 30, reaction temperature 25 °C | 0.15 | –
co-solvent concentration (% v/v): 30, reaction temperature 30 °C | 0.15 | –
co-solvent concentration (% v/v): 30, reaction temperature 35 °C | 0.02 | –
co-solvent concentration (% v/v): 30, reaction temperature 40 °C | 0.01 | –
co-solvent concentration (% v/v): 30, reaction temperature 45 °C | 0.02 | –
co-solvent concentration (% v/v): 35, reaction temperature 25 °C | 0.07 | –
co-solvent concentration (% v/v): 35, reaction temperature 30 °C | 0.03 | –
co-solvent concentration (% v/v): 35, reaction temperature 35 °C | 0.01 | –
co-solvent concentration (% v/v): 35, reaction temperature 40 °C | 0.01 | –
co-solvent concentration (% v/v): 35, reaction temperature 45 °C | 0.03 | –
co-solvent concentration (% v/v): 40, reaction temperature 25 °C | 0.02 | –
co-solvent concentration (% v/v): 40, reaction temperature 30 °C | 0.02 | –
co-solvent concentration (% v/v): 40, reaction temperature 35 °C | 0.01 | –
co-solvent concentration (% v/v): 40, reaction temperature 40 °C | 0.01 | –
co-solvent concentration (% v/v): 40, reaction temperature 45 °C | 0.01 | –
co-solvent concentration (% v/v): 45, reaction temperature 25 °C | 0.01 | –
co-solvent concentration (% v/v): 45, reaction temperature 30 °C | 0.04 | –
co-solvent concentration (% v/v): 45, reaction temperature 35 °C | 0.02 | –
co-solvent concentration (% v/v): 45, reaction temperature 40 °C | 0.01 | –
co-solvent concentration (% v/v): 45, reaction temperature 45 °C | 0.02 | –
